Values quoted from earlier work, collected in paper PMC8262464.

Target: TLR2 (Homo sapiens) (UniProt O60603)
Assay: SPR

UniProt O60603, sequence (O60603 21-588): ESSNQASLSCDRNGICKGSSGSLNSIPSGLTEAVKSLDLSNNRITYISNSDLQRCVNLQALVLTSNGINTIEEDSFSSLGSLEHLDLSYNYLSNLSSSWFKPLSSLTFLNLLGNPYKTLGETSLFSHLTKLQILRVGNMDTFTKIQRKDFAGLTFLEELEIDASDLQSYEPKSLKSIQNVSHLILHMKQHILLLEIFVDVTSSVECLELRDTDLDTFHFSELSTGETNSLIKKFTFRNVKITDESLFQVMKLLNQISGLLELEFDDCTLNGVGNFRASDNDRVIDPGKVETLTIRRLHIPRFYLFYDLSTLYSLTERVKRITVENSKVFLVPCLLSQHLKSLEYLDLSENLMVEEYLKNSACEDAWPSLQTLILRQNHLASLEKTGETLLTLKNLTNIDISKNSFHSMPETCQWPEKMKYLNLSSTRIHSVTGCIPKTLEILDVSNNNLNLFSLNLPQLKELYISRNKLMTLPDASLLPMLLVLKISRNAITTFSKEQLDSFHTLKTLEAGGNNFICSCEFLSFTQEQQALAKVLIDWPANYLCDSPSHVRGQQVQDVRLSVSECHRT

- Kd: 32.2 nM
Substance: MMP2 (from UniProt P08253)
